Results taken from US20200223889A1, “Bicyclic Compounds Capable of Binding to Melanocortin 4 Receptor” (Novo Nordisk A/S, priority 2017, published 2020).
Positions of bridges follow the written chain, without caps; N, C: chain ends. Non-standard residues stand in square brackets, D forms with d. Hyp = O=C(O)[C@@H]1C[C@@H](O)CN1; Dab = NCC[C@H](N)C(=O)O; Aib = CC(C)(N)C(=O)O

Key:
[1] = biological target: human melanocortin 4 receptor (human) (UniProt P32245); assay: cell-based or functional assay
human melanocortin 4 receptor (human), sequence (P32245 whole entry): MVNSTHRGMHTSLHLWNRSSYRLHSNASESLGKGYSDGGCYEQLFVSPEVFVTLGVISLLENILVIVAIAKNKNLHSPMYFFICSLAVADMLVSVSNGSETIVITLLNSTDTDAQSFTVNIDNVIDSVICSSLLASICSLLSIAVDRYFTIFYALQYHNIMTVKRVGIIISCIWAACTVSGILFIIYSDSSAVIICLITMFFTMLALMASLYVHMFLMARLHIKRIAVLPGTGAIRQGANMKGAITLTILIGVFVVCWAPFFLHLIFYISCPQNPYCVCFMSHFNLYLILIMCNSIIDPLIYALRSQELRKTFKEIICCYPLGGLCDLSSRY

[2] = biological target: human melanocortin 4 receptor (human) (UniProt P32245); assay: competition with 125-NDP-α-MSH, BHK human MC4R membranes
[3] = biological target: human melanocortin 1 receptor (human), Q01726; assay: cell-based or functional assay
human melanocortin 1 receptor (human), Q01726, sequence (Q01726 whole entry): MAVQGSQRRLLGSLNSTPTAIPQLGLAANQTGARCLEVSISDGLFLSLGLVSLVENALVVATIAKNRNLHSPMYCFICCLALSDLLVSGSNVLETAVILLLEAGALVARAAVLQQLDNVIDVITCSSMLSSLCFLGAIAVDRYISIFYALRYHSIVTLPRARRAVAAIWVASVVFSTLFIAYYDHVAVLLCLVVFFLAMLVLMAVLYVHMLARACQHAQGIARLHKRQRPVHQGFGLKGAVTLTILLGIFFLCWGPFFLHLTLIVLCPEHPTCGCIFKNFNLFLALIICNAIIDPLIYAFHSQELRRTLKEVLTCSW

[4] = biological target: human melanocortin 4 receptor (human), P32245; assay: cell-based or functional assay
human melanocortin 4 receptor (human), P32245, sequence (P32245 whole entry): as the sequence (P32245 whole entry) above

[5] = biological target: human melanocortin 4 receptor (human), P32245; assay: competition with 125-NDP-α-MSH, BHK human MC4R membranes

Binder | MC4R cAMP EC50 [1] [nM] | Ki [2] [nM] | MC1R cAMP EC50 [3] [nM] | MC4R cAMP EC50 [4] [nM] | Ki [5] [nM]
cyclo(C[dV]H[dF]RWC[dV]H[dF]RW) (disulfide 1-7; SMILES CC(C)[C@H]1NC(=O)[C@@H]2CSSC[C@H](NC(=O)[C@H](Cc3c[nH]c4ccccc34)NC(=O)[C@H](CCCNC(=N)N)NC(=O)[C@@H](Cc3ccccc3)NC(=O)[C@H](Cc3c[nH]cn3)NC1=O)C(=O)N[C@H](C(C)C)C(=O)N[C@@H](Cc1c[nH]cn1)C(=O)N[C@H](Cc1ccccc1)C(=O)N[C@@H](CCCNC(=N)N)C(=O)N[C@@H](Cc1c[nH]c3ccccc13)C(=O)N2) [Chem. 34] | 0.12 | 0.88 |  |  | 
CAHFRWCAYFKW (modifications not checked) [Chem. 80] |  |  | 8.65 | 0.15 | 0.16
CAHFRWCAAAAR (modifications not checked) [Chem. 89] |  |  | 0.59 | 0.02 | 0.07
CXHFXWCXHFXW (Aib 2, 8; D-Phe 4, 10; Cit 5, 11; disulphide Cys1-Cys7; head-to-tail amide Cys1-Trp12) [Chem. 41] | 1.34 | 5.39 |  |  | 
CAHFRWCRFFNA (modifications not checked) [Chem. 12] |  |  | 3.97 | 0.07 | 0.28
CAHFRWCPPERW (modifications not checked) [Chem. 112] |  |  | 30.2 | 0.19 | 1.21
CAHFRWCAEEEW (modifications not checked) [Chem. 44] |  |  | 31.9 | 1.53 | 50.9
CAHFRWCAAAAR (modifications not checked) [Chem. 90] |  |  | 0.65 | 0.01 | 0.11
CAHFRWCAAAAW (modifications not checked) [Chem. 88] |  |  | 1.31 | 0.02 | 0.2
cyclo(CH[dF]RW[dA]CH[dF]RW[dA]) (disulfide 1-7; SMILES C[C@H]1NC(=O)[C@H](Cc2c[nH]c3ccccc23)NC(=O)[C@H](CCCNC(=N)N)NC(=O)[C@@H](Cc2ccccc2)NC(=O)[C@H](Cc2c[nH]cn2)NC(=O)[C@@H]2CSSC[C@H](NC1=O)C(=O)N[C@@H](Cc1c[nH]cn1)C(=O)N[C@H](Cc1ccccc1)C(=O)N[C@@H](CCCNC(=N)N)C(=O)N[C@@H](Cc1c[nH]c3ccccc13)C(=O)N[C@H](C)C(=O)N2) [Chem. 6] | 0.06 | 0.19 |  |  | 
cyclo(C[dP]H[dF]RWC[dP]H[dF]RW) (disulfide 1-7; SMILES N=C(N)NCCC[C@@H]1NC(=O)[C@@H](Cc2ccccc2)NC(=O)[C@H](Cc2c[nH]cn2)NC(=O)[C@H]2CCCN2C(=O)[C@@H]2CSSC[C@H](NC(=O)[C@H](Cc3c[nH]c4ccccc34)NC1=O)C(=O)N1CCC[C@@H]1C(=O)N[C@@H](Cc1c[nH]cn1)C(=O)N[C@H](Cc1ccccc1)C(=O)N[C@@H](CCCNC(=N)N)C(=O)N[C@@H](Cc1c[nH]c3ccccc13)C(=O)N2) [Chem. 33] | 19.8 | 27.8 |  |  | 
CAHFRWCAKKKR (modifications not checked) [Chem. 59] |  |  | 0.16 | 0.004 | 0.01
CAHFRWCAKKKR (modifications not checked) [Chem. 85] |  |  | 0.22 | 0.01 | 0.02
CXHFXWCXHFXW (Aib 2, 8; D-Phe 4, 10; AGP 5, 11; disulphide Cys1-Cys7; head-to-tail amide Cys1-Trp12) [Chem. 43] | 0.44 | 2.61 |  |  | 
CAHFRWCAHFRW (modifications not checked) [Chem. 111] |  |  | 0.31 | 0.01 | 0.04
CAHFRWCRFFNAF (modifications not checked) [Chem. 13] |  |  | 6.36 | 0.1 | 0.26
CAHFRWCAAFAW (modifications not checked) [Chem. 11] |  |  | 2.17 | 0.03 | 0.25
cyclo(C[Aib][Hyp][dF]RWC[Aib][Hyp][dF]RW) (disulfide 1-7; SMILES CC1(C)NC(=O)[C@@H]2CSSC[C@H](NC(=O)[C@H](Cc3c[nH]c4ccccc34)NC(=O)[C@H](CCCNC(=N)N)NC(=O)[C@@H](Cc3ccccc3)NC(=O)[C@@H]3C[C@@H](O)CN3C1=O)C(=O)NC(C)(C)C(=O)N1C[C@H](O)C[C@H]1C(=O)N[C@H](Cc1ccccc1)C(=O)N[C@@H](CCCNC(=N)N)C(=O)N[C@@H](Cc1c[nH]c3ccccc13)C(=O)N2) [Chem. 38] | 4.22 | 5.64 |  |  | 
CAHFRWCAAAAW (modifications not checked) [Chem. 87] |  |  | 1.39 | 0.04 | 0.17
CAHFRWCKKKR (modifications not checked) [Chem. 101] |  |  | 0.19 | 0.04 | 0.05
CAHFRWCAHFRW (modifications not checked) [Chem. 10] |  |  | 4.88 |  | 
CAHFRWCAHFRW (modifications not checked) [Chem. 56] |  |  | 35.3 | 0.44 | 1.82
cyclo(C[dK]H[dF]HWC[dK]H[dF]HW) (disulfide 1-7; SMILES NCCCC[C@H]1NC(=O)[C@@H]2CSSC[C@H](NC(=O)[C@H](Cc3c[nH]c4ccccc34)NC(=O)[C@H](Cc3c[nH]cn3)NC(=O)[C@@H](Cc3ccccc3)NC(=O)[C@H](Cc3c[nH]cn3)NC1=O)C(=O)N[C@H](CCCCN)C(=O)N[C@@H](Cc1c[nH]cn1)C(=O)N[C@H](Cc1ccccc1)C(=O)N[C@@H](Cc1c[nH]cn1)C(=O)N[C@@H](Cc1c[nH]c3ccccc13)C(=O)N2) [Chem. 86] | 14.5 | 9.6 |  |  | 
CAHFRWCAHFRW (modifications not checked) [Chem. 8] |  |  | 1.76 | 0.02 | 0.08
CAHFRWCAEEAW (modifications not checked) [Chem. 102] |  |  | 14.3 | 0.49 | 10.1
cyclo(C[Aib]H[dF][Dab]WC[Aib]H[dF][Dab]W) (disulfide 1-7; SMILES CC1(C)NC(=O)[C@@H]2CSSC[C@H](NC(=O)[C@H](Cc3c[nH]c4ccccc34)NC(=O)[C@H](CCN)NC(=O)[C@@H](Cc3ccccc3)NC(=O)[C@H](Cc3c[nH]cn3)NC1=O)C(=O)NC(C)(C)C(=O)N[C@@H](Cc1c[nH]cn1)C(=O)N[C@H](Cc1ccccc1)C(=O)N[C@@H](CCN)C(=O)N[C@@H](Cc1c[nH]c3ccccc13)C(=O)N2) [Chem. 46] | 5.65 | 7.86 |  |  | 
